Reference: publication PMC7018016, “Superstructure formation by RodZ hexamers of Shigella sonnei maintains the rod shape of bacilli” (PLoS ONE, 2020)
Where “and” joins values, the source holds several entries; their conditions need not be identical. Identical values can stand only once.

Key:
[1] = target: RodZ_(ΔKRRKKR) (S. sonnei) (UniProt Q3YZ36); assay: native gel or EMSA; 3%–12% BN-PAGE (NativePAGE Novex Bis-Tris), CBB without SDS, loading buffer with mild detergents; 5 μl of each purified protein
[2] = target: the molecule itself; assay: cross-linking + other: High-Mass MALDI-TOF MS; serial dilutions (1 mg/ml–19.53 μg/ml) in PBS, treated with K200 Stabilizer crosslinker, CovalX HM3 module, 0–1500 kDa; Complex Tracker software corrects for the mass of the crosslinker; monomer measured without crosslinker
[3] = target: the molecule itself; assay: native gel or EMSA; 3%–12% BN-PAGE (NativePAGE Novex Bis-Tris), CBB without SDS, loading buffer with mild detergents; 5 μl of each purified protein

Molecule | stoichiometry N [1] | stoichiometry N [2] | stoichiometry N [3] | binding result [3]
RodZ_(ΔKRRKKR) (from UniProt Q3YZ36 1-337) (natural protein) | 6 | – | – | –
RodZ_(50–337) (domain or fragment, RodZ of Shigella sonnei, residues 50-337; The forward primer adds a start methionine before D50; calculated mass 31.64 kDa; also called N-terminal deletion RodZ_(50-337); not shown: His6, C-terminal, kept) DKAPADLASTFLRGYIRSYARLVHIPEEELLPGLEKQAPLRAAKVAPMQSFSLGKRRKKRDGWLMTFTWLVLFVVIGLSGAWWWQDHKAQQEEITTMADQSSAELSSNSEQGQSVPLNTSTTTDPATTSTPPASVDTTATNTQTPAVTAPAPAVDPQQNAVVSPSQANVDTAATPVPTAATTPDGAAPLPTDQAGVTTPAADPNALVMNFTADCWLEVTDATGKKLFSGMQRKDGNLNLTGQAPYKLKIGAPAAVQIQYQGKPVDLSRFIRTNQVARLTLNAEQSPAQ | – | 6.05 times and 6.22 times and 6.03 times | ~2 | –
RodZ_(1–142) (domain or fragment, RodZ of Shigella sonnei, residues 1-142; not shown: His6, C-terminal, kept) MNTEATHDQNEALTTGARLRNAREQLGLSQQAVAERLCLKVSTVRDIEEDKAPADLASTFLRGYIRSYARLVHIPEEELLPGLEKQAPLRAAKVAPMQSFSLGKRRKKRDGWLMTFTWLVLFVVIGLSGAWWWQDHKAQQEE | – | – | – | binds
RodZwt (wild-type RodZ of Shigella sonnei, his6-tagged) (natural protein, S. sonnei, UniProt Q3YZ36 1-337, looked up, RodZ of Shigella sonnei MS390, whole rodZ amplified with primers from the start codon to the last codon (337 residues); Cloned NdeI-XhoI into pET22b; predicted mass 36.83 kDa; The XhoI site of pET22b probably adds Leu-Glu before the his6 tag (surmise); also called his6-tagged RodZ; purified RodZwt; not shown: His6, C-terminal, kept) MNTEATHDQNEALTTGARLRNAREQLGLSQQAVAERLCLKVSTVRDIEEDKAPADLASTFLRGYIRSYARLVHIPEEELLPGLEKQAPLRAAKVAPMQSFSLGKRRKKRDGWLMTFTWLVLFVVIGLSGAWWWQDHKAQQEEITTMADQSSAELSSNSEQGQSVPLNTSTTTDPATTSTPPASVDTTATNTQTPAVTAPAPAVDPQQNAVVSPSQANVDTAATPVPTAATTPDGAAPLPTDQAGVTTPAADPNALVMNFTADCWLEVTDATGKKLFSGMQRKDGNLNLTGQAPYKLKIGAPAAVQIQYQGKPVDLSRFIRTNQVARLTLNAEQSPAQ | – | 6.36 times and 6 times | ~6 | –
